Data as given in patent publication US20010029293A1 (ICOS, published 2001).
Substitutions are numbered along the chain they refer to. In names and notes the source's numbering stands.

What was measured:
[1] = molecular target: T1, LFA-1 (CD11a/CD18) on cells (human, UniProt P20701 26-1170; P05107 23-769); experiment: not described
T1 construct: whole, on cells; on SKW3, JY, HL-60 cells, neutrophils, or CHO/COS transfectants; also called CD18/CD11a

[2] = molecular target: T2, VLA-4 (α4/β1) on cells (UniProt P13612 34-1032; P05556 21-798, limits assumed); experiment: not described
T2 construct: whole, on cells; on Jurkat cells, T cells or COS transfectants

[3] = molecular target: T1, LFA-1 (CD11a/CD18) on cells; experiment: neutrophil adhesion
[4] = molecular target: Mac-1 (CD11b/CD18) on cells (UniProt P11215 17-1152; P05107 23-769); experiment: neutrophil adhesion
[5] = molecular target: T1, LFA-1 (CD11a/CD18) on cells; experiment: JY cell adhesion to plate-bound chimera
[6] = molecular target: T3, soluble human ICAM-R (human, UniProt P32942 30-485); experiment: ELISA on coated shICAM-R; Low = 50% maximal binding at >1 µg/ml, High = at <1 µg/ml
T3 construct: baculovirus/Sf-9 product; also called shICAM-R; ICAM-Rt1
T3 chain: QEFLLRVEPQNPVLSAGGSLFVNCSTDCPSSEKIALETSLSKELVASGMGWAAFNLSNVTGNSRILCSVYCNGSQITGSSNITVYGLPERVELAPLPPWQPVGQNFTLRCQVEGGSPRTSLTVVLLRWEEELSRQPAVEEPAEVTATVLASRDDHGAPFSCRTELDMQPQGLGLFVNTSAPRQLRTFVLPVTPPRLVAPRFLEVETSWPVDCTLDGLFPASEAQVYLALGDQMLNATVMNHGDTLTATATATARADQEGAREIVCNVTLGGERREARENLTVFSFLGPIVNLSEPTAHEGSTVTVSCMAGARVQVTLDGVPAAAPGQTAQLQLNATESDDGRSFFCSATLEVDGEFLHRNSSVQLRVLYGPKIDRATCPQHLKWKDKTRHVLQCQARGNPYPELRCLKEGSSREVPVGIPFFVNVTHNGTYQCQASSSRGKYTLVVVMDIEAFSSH

[7] = molecular target: T4, human ICAM-R (human, UniProt P32942 30-547); experiment: FACS, 5 µg/ml
T4 construct: On transfected L, CV-1 or COS cells, or native on human leukocytes and cell lines; also called ICAM-3; CDw50
T4 chain: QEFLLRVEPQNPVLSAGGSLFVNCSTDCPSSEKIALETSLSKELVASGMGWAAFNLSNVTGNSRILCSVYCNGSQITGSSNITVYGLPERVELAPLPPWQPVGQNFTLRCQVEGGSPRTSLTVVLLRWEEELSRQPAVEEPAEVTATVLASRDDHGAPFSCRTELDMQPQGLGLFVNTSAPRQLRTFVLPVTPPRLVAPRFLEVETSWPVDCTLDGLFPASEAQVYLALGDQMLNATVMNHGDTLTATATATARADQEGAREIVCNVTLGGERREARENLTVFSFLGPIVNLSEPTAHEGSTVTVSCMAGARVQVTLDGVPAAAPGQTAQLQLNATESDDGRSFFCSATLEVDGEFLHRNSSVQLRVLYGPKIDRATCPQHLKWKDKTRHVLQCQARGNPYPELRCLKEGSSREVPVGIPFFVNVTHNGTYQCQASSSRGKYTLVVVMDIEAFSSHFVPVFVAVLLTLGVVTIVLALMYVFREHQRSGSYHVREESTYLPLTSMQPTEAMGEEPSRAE

[8] = molecular target: T5, chimeric Protein 3 (ICAM-R domains 1-3 / ICAM-1) (human, UniProt P05362 317-532); experiment: FACS, 5 µg/ml
T5 construct: range 317-532; on COS cells; also called Protein number 3; RD1-3.1D4-5

[9] = molecular target: T6, human ICAM-1 (human, UniProt P05362 28-532); experiment: FACS, 5 µg/ml
T6 construct: whole, on cells; on transfected L or COS cells
T6 sequence (P05362 28-532): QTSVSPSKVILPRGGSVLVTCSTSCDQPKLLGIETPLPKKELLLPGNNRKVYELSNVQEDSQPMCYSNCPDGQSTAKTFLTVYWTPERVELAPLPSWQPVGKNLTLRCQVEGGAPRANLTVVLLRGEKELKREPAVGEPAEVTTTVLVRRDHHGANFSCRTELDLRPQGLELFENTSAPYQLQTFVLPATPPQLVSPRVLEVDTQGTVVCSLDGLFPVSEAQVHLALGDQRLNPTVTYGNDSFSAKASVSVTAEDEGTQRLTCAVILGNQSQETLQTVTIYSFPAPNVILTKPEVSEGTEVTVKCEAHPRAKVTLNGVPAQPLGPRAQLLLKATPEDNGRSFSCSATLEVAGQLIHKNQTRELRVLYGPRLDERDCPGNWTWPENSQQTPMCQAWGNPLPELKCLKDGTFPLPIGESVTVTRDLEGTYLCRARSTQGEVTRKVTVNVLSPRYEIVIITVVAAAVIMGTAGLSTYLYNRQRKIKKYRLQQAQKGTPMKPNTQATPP

[10] = molecular target: T4, human ICAM-R; experiment: cell-based or functional assay
[11] = molecular target: T3, soluble human ICAM-R; experiment: ELISA on coated shICAM-R
[12] = molecular target: T1, LFA-1 (CD11a/CD18) on cells; experiment: cell adhesion to coated shICAM-R, peptide 1-2 mg/ml
[13] = molecular target: T3, soluble human ICAM-R; experiment: blocking of biotinylated murine ICR-8.1 (competitor) binding to ICAM-R

T1 sequence (P20701 26-1170, chain 1 of 2): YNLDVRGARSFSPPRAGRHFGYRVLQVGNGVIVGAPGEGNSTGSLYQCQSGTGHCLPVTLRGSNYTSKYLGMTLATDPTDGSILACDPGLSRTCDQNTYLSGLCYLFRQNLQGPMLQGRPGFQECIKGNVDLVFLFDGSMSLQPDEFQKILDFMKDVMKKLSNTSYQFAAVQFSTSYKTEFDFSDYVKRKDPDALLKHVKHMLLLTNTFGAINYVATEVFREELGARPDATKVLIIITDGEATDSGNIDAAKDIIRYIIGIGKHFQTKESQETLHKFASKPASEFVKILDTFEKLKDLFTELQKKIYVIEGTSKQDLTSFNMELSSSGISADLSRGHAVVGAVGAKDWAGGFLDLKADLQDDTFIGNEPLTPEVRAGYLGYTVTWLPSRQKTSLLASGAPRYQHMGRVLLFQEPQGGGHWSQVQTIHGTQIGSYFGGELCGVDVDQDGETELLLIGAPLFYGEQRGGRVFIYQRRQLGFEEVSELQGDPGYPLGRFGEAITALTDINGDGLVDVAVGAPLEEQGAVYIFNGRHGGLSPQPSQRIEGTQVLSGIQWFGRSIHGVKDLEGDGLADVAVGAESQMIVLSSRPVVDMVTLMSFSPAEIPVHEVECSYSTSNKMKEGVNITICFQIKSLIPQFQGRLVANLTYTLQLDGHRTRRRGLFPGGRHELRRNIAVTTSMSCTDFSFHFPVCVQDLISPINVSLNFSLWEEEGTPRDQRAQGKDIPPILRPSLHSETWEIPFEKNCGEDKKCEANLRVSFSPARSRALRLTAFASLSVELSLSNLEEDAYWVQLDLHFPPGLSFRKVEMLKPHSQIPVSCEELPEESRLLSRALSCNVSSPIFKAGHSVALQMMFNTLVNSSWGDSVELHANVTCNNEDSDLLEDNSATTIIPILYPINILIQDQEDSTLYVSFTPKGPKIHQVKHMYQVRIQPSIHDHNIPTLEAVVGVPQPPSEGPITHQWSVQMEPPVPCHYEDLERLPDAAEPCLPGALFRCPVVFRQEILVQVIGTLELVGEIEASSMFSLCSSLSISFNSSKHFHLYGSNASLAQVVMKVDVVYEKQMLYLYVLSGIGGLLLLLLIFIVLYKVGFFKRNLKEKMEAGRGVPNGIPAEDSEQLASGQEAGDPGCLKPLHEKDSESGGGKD
T1 sequence (P05107 23-769, chain 2 of 2): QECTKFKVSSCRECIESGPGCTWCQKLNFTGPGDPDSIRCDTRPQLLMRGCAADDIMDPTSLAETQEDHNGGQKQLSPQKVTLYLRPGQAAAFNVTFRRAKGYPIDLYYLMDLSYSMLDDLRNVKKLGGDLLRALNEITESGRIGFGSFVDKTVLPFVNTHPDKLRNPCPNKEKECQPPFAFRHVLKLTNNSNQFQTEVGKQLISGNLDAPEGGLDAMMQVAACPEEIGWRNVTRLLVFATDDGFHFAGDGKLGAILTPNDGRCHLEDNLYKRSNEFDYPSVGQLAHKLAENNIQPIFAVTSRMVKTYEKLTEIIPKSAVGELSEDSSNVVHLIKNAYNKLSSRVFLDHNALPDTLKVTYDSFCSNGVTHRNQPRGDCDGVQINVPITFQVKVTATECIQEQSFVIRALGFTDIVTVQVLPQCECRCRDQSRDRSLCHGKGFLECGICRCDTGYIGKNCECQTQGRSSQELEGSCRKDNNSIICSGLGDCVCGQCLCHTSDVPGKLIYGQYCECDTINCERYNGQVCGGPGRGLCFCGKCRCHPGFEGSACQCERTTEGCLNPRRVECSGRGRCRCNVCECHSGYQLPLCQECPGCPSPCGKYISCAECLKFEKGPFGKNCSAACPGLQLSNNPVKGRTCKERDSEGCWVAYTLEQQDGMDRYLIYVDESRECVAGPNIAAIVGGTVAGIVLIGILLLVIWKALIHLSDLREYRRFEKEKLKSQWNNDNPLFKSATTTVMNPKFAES

B1: ICAM-R/IgG variant D231H-Ig (Fc fusion)
chain: T3 chain with D231H
notes: not shown: human IgG1 hinge, CH2, CH3
- binding result [1]: binds
- binding result [2]: binds

B2: ICAM-R/His fusion protein (receptor, not shown: small tags and cut ends)
chain: T3 chain
notes: CHO product
- binding result [3]: binds
- binding result [4]: binds

B3: ICAM-R/IgG chimera E37/A (Fc fusion)
chain: T3 chain with E37A
notes: also called ICAM-R E37/A; not shown: human IgG1 hinge, CH2, CH3
- binding result [5]: no binding
- binding result [4]: binds

B4: ICAM-R/IgG variant E37T-Ig (Fc fusion)
chain: T3 chain with E37A, T38S
notes: as for B1
- binding result [1]: no binding

B5: ICR-1.1 (antibody, mouse IgG2a, V domains shown)
VH: QVQLQQSGAELADPGASVKMSCKASGYTFTVYWMHWVKQRPGQGLEWIGYINPNTDYTEYNQRFQDKATLTADKSSSTAYMQLSSLTSEDSAVYYCARWGGNSYGLDYWGQGTSVTVSS
VL: QIVLTQSPALMSASPGEKVTMTCSASSSVSYIYWYQQKPRSSPKPWIYLTSNLASGVPARFSGSGSGASYSLTISIMEAEDAATYYCQQWKSIPLTFGAGTKLELK
notes: murine IgG2a, kappa; also called 26E3D; 26E3D-1
- monoclonal antibody concentration at 50% maximal binding (ELISA EC50) [6]: > 1 mg/L
- percent positive COS cell transfectants [7]: 54.3%
- percent positive COS cell transfectants [8]: 52.7%
- percent positive COS cell transfectants [9]: 2.43%
- IC50 (µg/ml), inhibition of SEA-induced PBL proliferation by plate-bound antibody [10]: 63 µg/mL

B6: ICR-1.1 antibody with HuVK (hybrid) (antibody, human IgG4, V domains shown)
VH: B5 VH with D13K
VL: DIQMTQSPSSLSASVGDRVTITCSASSSVSYIYWYQQKPGKAPKLLIYLTSNLASGVPSRFSGSGSGTDFTLTISSLQPEDFATYYCQQWKSIPLTFGQGTKLEIK
notes: human IgG4 and human kappa constant regions; also called HuVK version
- fold deficit in binding against the murine progenitor chain [11]: 2 fold

B7: ICAM-R peptide 230-234 (GDQML) (peptide)
peptide: GDQML
- % Inhibition CD18-Dependent Binding (SKW3) [12]: 0%

B8: ICAM-R peptide 32-38 (peptide)
peptide: EKIALET
- % Inhibition CD18-Dependent Binding (SKW3) [12]: 0%

B9: ICAM-R peptide 271-276 (peptide)
peptide: GERREA
- % Inhibition CD18-Dependent Binding (SKW3) [12]: 0%

B10: domain deletion ICAM-R/IgG chimera with ICAM-R domains 3, 4 and 5 (Fc fusion)
chain: VLPVTPPRLVAPRFLEVETSWPVDCTLDGLFPASEAQVYLALGDQMLNATVMNHGDTLTATATATARADQEGAREIVCNVTLGGERREARENLTVFSFLGPIVNLSEPTAHEGSTVTVSCMAGARVQVTLDGVPAAAPGQTAQLQLNATESDDGRSFFCSATLEVDGEFLHRNSSVQLRVLYGPKIDRATCPQHLKWKDKTRHVLQCQARGNPYPELRCLKEGSSREVPVGIPFFVNVTHNGTYQCQASSSRGKYTLVVVMDIEAFSSH
notes: as for B1
- binding result [5]: no binding

B11: ICR-8.1 (antibody, mouse IgG1, V domains shown)
VH: EIQLQQTGPELVKPGASVKISCKASGYSFTDCIILWVKQSHGKGLEWIGKINPYFGTTTYNLKFKGKATLTVDKSSSTAHMQLNSLTSEDSAVYYCARKEAYPDAMDYWGQGTSVTVSS
VL: DAVMTQTPLSLPVSLGDQASISCRSSQSLVHSNGDTYLHWYLQKPGQSPQLLIYKVSNRFSGVPDRFSGSGSGTDFTLKLSRVEAEDLGVYFCSQSTHVPYTFGGGTKLEIK
notes: murine IgG1, kappa; also called 46D7E; ATCC HB 11232
- percent positive COS cell transfectants [7]: 48.9%
- percent positive COS cell transfectants [8]: 44.9%
- percent positive COS cell transfectants [9]: 1.08%
- IC50 (µg/ml), inhibition of SEA-induced PBL proliferation by plate-bound antibody [10]: 1 µg/mL

B12: ICR-8.1 miHuVHI/HuVK (antibody, human IgG4, V domains shown)
VH: QIQLVQSGAEVKKPGASVKVSCKASGYTFTDCIILWVRQAPGQGLEWMGKINPYFGTTTYAQKFQGRVTITADTSTSTAYMELSSLRSEDTAVYYCARKEAYPDAMDYWGQGTLVTVSS
VL: DIVMTQSPLSLPVTPGEPASISCRSSQSLVHSNGDTYLHWYLQKPGQSPQLLIYKVSNRFSGVPDRFSGSGSGTDFTLKISRVEAEDVGVYYCSQSTHVPYTFGQGTKVEIK
notes: human IgG4 and human kappa constant regions
- fold improvement in binding over the other recombinant ICR-8.1 antibodies [11]: ~2 fold
- fold less well in competition than murine ICR-8.1 [13]: ~2 fold

B13: ICR-8.1 miHuVHI/MuVK (antibody, human IgG4, V domains shown)
VH: B12 VH
VL: B11 VL
notes: as for B12
- fold improvement in binding over the other recombinant ICR-8.1 antibodies [11]: ~2 fold
- fold less well in competition than murine ICR-8.1 [13]: ~2 fold

B14: ICAM-1 peptide 70-74 (DGQST) (peptide)
peptide: DGQST
- % Inhibition CD18-Dependent Binding (SKW3) [12]: 0%
